Data: article PMC9755681, “Next-generation sequencing of a combinatorial peptide phage library screened against ubiquitin identifies peptide aptamers that can inhibit the in vitro ubiquitin transfer cascade” (Frontiers in Microbiology, 2022)
No end group written: not given here. *: point of attachment. Biotin = O=C1N[C@H]2[C@H](CS[C@H]2CCCCC(=O)*)N1

B1: peptide-12 (Biotin-SGSG-AKFDMHIATRLS-amide) (peptide)
peptide: Biotin-SGSGAKFDMHIATRLS-NH2
SMILES: CC[C@H](C)[C@H](NC(=O)[C@H](Cc1c[nH]cn1)NC(=O)[C@H](CCSC)NC(=O)[C@H](CC(=O)O)NC(=O)[C@H](Cc1ccccc1)NC(=O)[C@H](CCCCN)NC(=O)[C@H](C)NC(=O)CNC(=O)[C@H](CO)NC(=O)CNC(=O)[C@H](CO)NC(=O)CCCC[C@@H]1SC[C@@H]2NC(=O)N[C@@H]21)C(=O)N[C@@H](C)C(=O)N[C@H](C(=O)N[C@@H](CCCNC(=N)N)C(=O)N[C@@H](CC(C)C)C(=O)N[C@@H](CO)C(N)=O)[C@@H](C)O
notes: spacer; phage-selected 12-mer; also called synthetic peptide 12; source: synthetic peptide (Chiron Mimotopes, Australia)
B2: peptide-37 (Biotin-SGSG-FIPAQLHFHWRS-amide) (peptide)
peptide: Biotin-SGSGFIPAQLHFHWRS-NH2
SMILES: CC[C@H](C)[C@H](NC(=O)[C@H](Cc1ccccc1)NC(=O)CNC(=O)[C@H](CO)NC(=O)CNC(=O)[C@H](CO)NC(=O)CCCC[C@@H]1SC[C@@H]2NC(=O)N[C@@H]21)C(=O)N1CCC[C@H]1C(=O)N[C@@H](C)C(=O)N[C@@H](CCC(N)=O)C(=O)N[C@@H](CC(C)C)C(=O)N[C@@H](Cc1c[nH]cn1)C(=O)N[C@@H](Cc1ccccc1)C(=O)N[C@@H](Cc1c[nH]cn1)C(=O)N[C@@H](Cc1c[nH]c2ccccc12)C(=O)N[C@@H](CCCNC(=N)N)C(=O)N[C@@H](CO)C(N)=O
notes: spacer; phage-selected 12-mer; also called synthetic peptide 37; source: synthetic peptide (Chiron Mimotopes, Australia)
B3: Non-tagged peptide-12 (AKFDMHIATRLS), non-biotinylated with a C-terminal NH2 (peptide)
peptide: AKFDMHIATRLS-NH2
notes: phage-selected 12-mer; source: synthetic peptide
B4: Non-tagged Peptide-37 (FIPAQLHFHWRS), non-biotinylated with a C-terminal NH2 (peptide)
peptide: FIPAQLHFHWRS-NH2
notes: as for B3

Experiments:
[1] = molecular target: T1, Ubiquitin (ubiquitination reactions, HDX-MS and reverse-phase HPLC) (human, UniProt P0CG48 1-76); test: HDX-MS; global deuteration of intact ubiquitin, 2 uM, ubiquitin to peptide 1:2 and 1:5, room temperature, 1 min in deuterated water with 0.1% DMSO; conditions: both partners purified
T1 construct: ubiquitin, human; the 76-residue ubiquitin unit cut from its precursor; That the HDX/HPLC ubiquitin is the Boston Biochem one is surmised; also called ubiquitin protein; native ubiquitin; source: bought: Boston Biochem (ubiquitination reactions)

[2] = molecular target: T2, uniformly labeled 15N-human ubiquitin (human, UniProt P0CG48 1-76, uniformly 15N-labeled); test: NMR titration; 1H-15N HSQC and 15N relaxation of 0.5 mM 15N-ubiquitin, 10 mM sodium phosphate pH 5.0, 298 K, without and with peptide (0.64 mg peptide 12 or 0.7 mg peptide 37 in 0.55 ml); conditions: both partners purified
T2 construct: ubiquitin, human; the 76-residue ubiquitin unit cut from its precursor; also called N15-labeled Ubiquitin; source: bought: Asla Biotech (Latvia)

Binder | binding result [1] | binding result [2]
B1 | binds | –
B2 | binds | –
B3 | – | binds
B4 | – | binds
